T1: IL-18 receptor (IL-18Rα and IL-18Rβ) on HEK-Blue IL-18 cells (UniProt Q13478 19-541; O95256 20-599, limits assumed)
T1 sequence (looked up) 1: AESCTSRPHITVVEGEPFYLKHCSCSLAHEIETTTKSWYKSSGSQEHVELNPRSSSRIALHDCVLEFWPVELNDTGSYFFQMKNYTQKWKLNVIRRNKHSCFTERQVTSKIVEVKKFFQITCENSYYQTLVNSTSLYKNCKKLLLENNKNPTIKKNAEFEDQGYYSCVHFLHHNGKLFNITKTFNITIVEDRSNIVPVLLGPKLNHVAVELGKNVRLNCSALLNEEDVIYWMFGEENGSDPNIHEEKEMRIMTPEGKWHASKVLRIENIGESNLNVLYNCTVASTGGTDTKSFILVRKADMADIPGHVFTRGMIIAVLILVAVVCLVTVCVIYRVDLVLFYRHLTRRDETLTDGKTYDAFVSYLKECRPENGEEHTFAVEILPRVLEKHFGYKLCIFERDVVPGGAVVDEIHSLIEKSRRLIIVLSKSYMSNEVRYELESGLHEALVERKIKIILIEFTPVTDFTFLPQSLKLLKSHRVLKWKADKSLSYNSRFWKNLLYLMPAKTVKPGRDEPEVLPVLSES
T1 sequence (looked up) 2: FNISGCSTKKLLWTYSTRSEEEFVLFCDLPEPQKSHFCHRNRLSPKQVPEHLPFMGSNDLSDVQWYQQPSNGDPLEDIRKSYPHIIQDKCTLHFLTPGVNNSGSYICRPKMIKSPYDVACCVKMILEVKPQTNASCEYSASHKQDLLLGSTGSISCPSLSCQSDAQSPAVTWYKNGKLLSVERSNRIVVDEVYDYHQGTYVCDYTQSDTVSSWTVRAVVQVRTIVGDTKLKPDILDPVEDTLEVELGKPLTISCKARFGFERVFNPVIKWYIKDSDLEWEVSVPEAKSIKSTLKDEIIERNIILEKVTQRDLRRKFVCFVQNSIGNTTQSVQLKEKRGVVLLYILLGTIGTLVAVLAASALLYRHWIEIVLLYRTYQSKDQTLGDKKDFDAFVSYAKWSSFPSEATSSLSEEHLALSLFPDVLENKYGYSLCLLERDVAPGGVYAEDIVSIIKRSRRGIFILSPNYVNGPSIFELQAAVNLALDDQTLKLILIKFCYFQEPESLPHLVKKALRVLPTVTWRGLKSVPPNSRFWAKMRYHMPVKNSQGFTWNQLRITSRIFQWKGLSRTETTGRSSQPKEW


target: T1, IL-18 receptor (IL-18Rα and IL-18Rβ) on …; experiment: cell-based or functional assay

HEK-Blue assay, % human IL-18 | Binder
41 % of human IL18 activity | DGL212 (bispecific antibody) chain 1: QVQLVESGGGLVQAGGSLRLSCAASGRTFSKHAMGWFRQAPGKEREFVAAIDWSGGSTYYADSVKGRFTISRDNAKNTVYLQMDSLKPEDTAVYYCAADSYTDYAQLWLPELESEYDYWGQGTLVTVSSDKTHTCPPCPAPEAAGAPSVFLFPPKPKDTLMISRTPEVTCVVVDVSHEDPEVKFNWYVDGVEVHNAKTKPREEQYNSTYRVVSVLTVLHQDWLNGKEYKCKVSNKALPAPIEKTISKAKGQPREPQVCTLPPSRDELTKNQVSLSCAVKGFYPSDIAVEWESNGQPENNYKTTPPVLDSDGSFFLVSKLTVDKSRWQQGNVFSCSVMHEALHNHYTQKSLSLSPGWSHPQFEK chain 2: not shown
50 % of human IL18 activity | DGL211 (bispecific antibody) chain 1: QVQLVESGGGLVQAGGSLRLSCAASGRTFSKHAMGWFRQAPGKEREFVAAIDWSGGSTYYADSVKGRFTISRDNAKNTVYLQMDSLKPEDTAVYYCAADSYTDYAQLWLPELESEYDYWGQGTLVTVSSEKSYGPPCPPCPAPEAAGAPSVFLFPPKPKDTLMISRTPEVTCVVVDVSHEDPEVKFNWYVDGVEVHNAKTKPREEQYNSTYRVVSVLTVLHQDWLNGKEYKCKVSNKALPAPIEKTISKAKGQPREPQVCTLPPSRDELTKNQVSLSCAVKGFYPSDIAVEWESNGQPENNYKTTPPVLDSDGSFFLVSKLTVDKSRWQQGNVFSCSVMHEALHNHYTQKSLSLSPGWSHPQFEK chain 2: QLQLVESGGGLVQAGGSLRLSCAASRSITFSHNVMGWYRQAPGKQRELVASIGSGGSTNYVDSVKGRATISRDNAKKTVYLQMNSLKPEDTAVYYCGVVVGVYRGSLGQGTLVTVSSEKSYGPPCPPCPAPEAAGAPSVFLFPPKPKDTLMISRTPEVTCVVVDVSHEDPEVKFNWYVDGVEVHNAKTKPREEQYNSTYRVVSVLTVLHQDWLNGKEYKCKVSNKALPAPIEKTISKAKGQPREPQVYTLPPCRDELTKNQVSLWCLVKGFYPSDIAVEWESNGQPENNYKTTPPVLDSDGSFFLYSKLTVDKSRWQQGNVFSCSVMHEALHNHYTQKSLSLSPGEPEA
34 % of human IL18 activity | DGL210 (bispecific antibody) chain 1: QVQLVESGGGLVQAGGSLRLSCAASGRTFSKHAMGWFRQAPGKEREFVAAIDWSGGSTYYADSVKGRFTISRDNAKNTVYLQMDSLKPEDTAVYYCAADSYTDYAQLWLPELESEYDYWGQGTLVTVSSGGGGSGGGGSGGGGSGGGGSCPPCPAPEAAGAPSVFLFPPKPKDTLMISRTPEVTCVVVDVSHEDPEVKFNWYVDGVEVHNAKTKPREEQYNSTYRVVSVLTVLHQDWLNGKEYKCKVSNKALPAPIEKTISKAKGQPREPQVCTLPPSRDELTKNQVSLSCAVKGFYPSDIAVEWESNGQPENNYKTTPPVLDSDGSFFLVSKLTVDKSRWQQGNVFSCSVMHEALHNHYTQKSLSLSPGWSHPQFEK chain 2: QLQLVESGGGLVQAGGSLRLSCAASRSITFSHNVMGWYRQAPGKQRELVASIGSGGSTNYVDSVKGRATISRDNAKKTVYLQMNSLKPEDTAVYYCGVVVGVYRGSLGQGTLVTVSSGGGGSGGGGSGGGGSGGGGSCPPCPAPEAAGAPSVFLFPPKPKDTLMISRTPEVTCVVVDVSHEDPEVKFNWYVDGVEVHNAKTKPREEQYNSTYRVVSVLTVLHQDWLNGKEYKCKVSNKALPAPIEKTISKAKGQPREPQVYTLPPCRDELTKNQVSLWCLVKGFYPSDIAVEWESNGQPENNYKTTPPVLDSDGSFFLYSKLTVDKSRWQQGNVFSCSVMHEALHNHYTQKSLSLSPGEPEA

target: T1, IL-18 receptor (IL-18Rα and IL-18Rβ) on …; experiment: cell-based or functional assay; remark: another data set of the same source

HEK-Blue assay, % human IL18 [% human IL18] | Binder
42 | DGL213 (bispecific antibody) chain 1: QVQLVESGGGLVQAGGSLRLSCAASGRTFSKHAMGWFRQAPGKEREFVAAIDWSGGSTYYADSVKGRFTISRDNAKNTVYLQMDSLKPEDTAVYYCAADSYTDYAQLWLPELESEYDYWGQGTLVTVSSDKTHTCPPCPAPEAAGAPSVFLFPPKPKDTLMISRTPEVTCVVVDVSHEDPEVKFNWYVDGVEVHNAKTKPREEQYNSTYRVVSVLTVLHQDWLNGKEYKCKVSNKALPAPIEKTISKAKGQPREPQVCTLPPSRDELTKNQVSLSCAVKGFYPSDIAVEWESNGQPENNYKTTPPVLDSDGSFFLVSKLTVDKSRWQQGNVFSCSVMHEALHNHYTQKSLSLSPGWSHPQFEK chain 2: QLQLVESGGGLVQAGGSLRLSCAASRSITFSHNVMGWYRQAPGKQRELVASIGSGGSTNYVDSVKGRATISRDNAKKTVYLQMNSLKPEDTAVYYCGVVVGVYRGSLGQGTLVTVSSCPPCPAPEAAGAPSVFLFPPKPKDTLMISRTPEVTCVVVDVSHEDPEVKFNWYVDGVEVHNAKTKPREEQYNSTYRVVSVLTVLHQDWLNGKEYKCKVSNKALPAPIEKTISKAKGQPREPQVYTLPPCRDELTKNQVSLWCLVKGFYPSDIAVEWESNGQPENNYKTTPPVLDSDGSFFLYSKLTVDKSRWQQGNVFSCSVMHEALHNHYTQKSLSLSPGEPEA
40 | DGL215 (bispecific antibody) chain 1: QVQLVESGGGLVQAGGSLRLSCAASGRTFSKHAMGWFRQAPGKEREFVAAIDWSGGSTYYADSVKGRFTISRDNAKNTVYLQMDSLKPEDTAVYYCAADSYTDYAQLWLPELESEYDYWGQGTLVTVSSDKTHTCPPCPAPEAAGAPSVFLFPPKPKDTLMISRTPEVTCVVVDVSHEDPEVKFNWYVDGVEVHNAKTKPREEQYNSTYRVVSVLTVLHQDWLNGKEYKCKVSNKALPAPIEKTISKAKGQPREPQVCTLPPSRDELTKNQVSLSCAVKGFYPSDIAVEWESNGQPENNYKTTPPVLDSDGSFFLVSKLTVDKSRWQQGNVFSCSVMHEALHNHYTQKSLSLSPGWSHPQFEK chain 2: QLQLVESGGGLVQAGGSLRLSCAASRSITFSHNVMGWYRQAPGKQRELVASIGSGGSTNYVDSVKGRATISRDNAKKTVYLQMNSLKPEDTAVYYCGVVVGVYRGSLGQGTLVTVSSPLAPCPPCPAPEAAGAPSVFLFPPKPKDTLMISRTPEVTCVVVDVSHEDPEVKFNWYVDGVEVHNAKTKPREEQYNSTYRVVSVLTVLHQDWLNGKEYKCKVSNKALPAPIEKTISKAKGQPREPQVYTLPPCRDELTKNQVSLWCLVKGFYPSDIAVEWESNGQPENNYKTTPPVLDSDGSFFLYSKLTVDKSRWQQGNVFSCSVMHEALHNHYTQKSLSLSPGEPEA
22 | DGL216 (bispecific antibody) chain 1: QVQLVESGGGLVQAGGSLRLSCAASGRTFSKHAMGWFRQAPGKEREFVAAIDWSGGSTYYADSVKGRFTISRDNAKNTVYLQMDSLKPEDTAVYYCAADSYTDYAQLWLPELESEYDYWGQGTLVTVSSDKTHTCPPCPAPEAAGAPSVFLFPPKPKDTLMISRTPEVTCVVVDVSHEDPEVKFNWYVDGVEVHNAKTKPREEQYNSTYRVVSVLTVLHQDWLNGKEYKCKVSNKALPAPIEKTISKAKGQPREPQVCTLPPSRDELTKNQVSLSCAVKGFYPSDIAVEWESNGQPENNYKTTPPVLDSDGSFFLVSKLTVDKSRWQQGNVFSCSVMHEALHNHYTQKSLSLSPGWSHPQFEK chain 2: QLQLVESGGGLVQAGGSLRLSCAASRSITFSHNVMGWYRQAPGKQRELVASIGSGGSTNYVDSVKGRATISRDNAKKTVYLQMNSLKPEDTAVYYCGVVVGVYRGSLGQGTLVTVSSGGGGSGGGGSGGGGSGGGGSCPPCPAPEAAGAPSVFLFPPKPKDTLMISRTPEVTCVVVDVSHEDPEVKFNWYVDGVEVHNAKTKPREEQYNSTYRVVSVLTVLHQDWLNGKEYKCKVSNKALPAPIEKTISKAKGQPREPQVYTLPPCRDELTKNQVSLWCLVKGFYPSDIAVEWESNGQPENNYKTTPPVLDSDGSFFLYSKLTVDKSRWQQGNVFSCSVMHEALHNHYTQKSLSLSPGEPEA
31 | DGL214 (bispecific antibody) chain 1: QVQLVESGGGLVQAGGSLRLSCAASGRTFSKHAMGWFRQAPGKEREFVAAIDWSGGSTYYADSVKGRFTISRDNAKNTVYLQMDSLKPEDTAVYYCAADSYTDYAQLWLPELESEYDYWGQGTLVTVSSDKTHTCPPCPAPEAAGAPSVFLFPPKPKDTLMISRTPEVTCVVVDVSHEDPEVKFNWYVDGVEVHNAKTKPREEQYNSTYRVVSVLTVLHQDWLNGKEYKCKVSNKALPAPIEKTISKAKGQPREPQVCTLPPSRDELTKNQVSLSCAVKGFYPSDIAVEWESNGQPENNYKTTPPVLDSDGSFFLVSKLTVDKSRWQQGNVFSCSVMHEALHNHYTQKSLSLSPGWSHPQFEK chain 2: not shown

Reference: US20240383990A1 (DIAGONAL THERAPEUTICS, published 2024)
